{"source": "paper PMC4740795", "about": "“Mechanistic insights into the recognition of 5-methylcytosine oxidation derivatives by the SUVH5 SRA domain”", "binders": {"B1": {"name": "fully-5caCG duplex (ITC) (dsDNA)", "DNA 1": "CAGCTCGAGCTG", "DNA 2": "CAGCTCGAGCTG", "modifications": "5caC at central CG, both strands"}, "B2": {"name": "hemi-5hmCG duplex (ITC) (dsDNA)", "DNA 1": "CCATGCGCTGAC", "DNA 2": "GTCAGCGCATGG", "modifications": "5hmC at central CG, one strand"}, "B3": {"name": "fully-5fCG duplex (ITC) (dsDNA)", "DNA 1": "CAGCTCGAGCTG", "DNA 2": "CAGCTCGAGCTG", "modifications": "5fC at central CG, both strands"}, "B4": {"name": "fully-5hmCG duplex (ITC) (dsDNA)", "DNA 1": "CAGCTCGAGCTG", "DNA 2": "CAGCTCGAGCTG", "modifications": "5hmC at central CG, both strands"}, "B5": {"name": "fully-5mCG duplex (ITC) (dsDNA)", "DNA 1": "CAGCTCGAGCTG", "DNA 2": "CAGCTCGAGCTG", "modifications": "5mC at central CG, both strands"}, "B6": {"name": "hemi-5mCG 12-mer (dsDNA)", "DNA 1": "CCATGCGCTGAC", "DNA 2": "GTCAGCGCATGG", "modifications": "X = 5mC, one strand"}, "B7": {"name": "fully-5hmCG 10-mer with 3'-T overhang (crystal) (dsDNA)", "DNA 1": "ACTACGTAGTT", "DNA 2": "ACTACGTAGTT", "modifications": "5hmC at position 5, both strands"}}, "key": {"SUVH5 SRA domain [1]": {"biological_target": "T1, SUVH5 SRA domain (Arabidopsis, UniProt O82175 362-528)", "T1 sequence": "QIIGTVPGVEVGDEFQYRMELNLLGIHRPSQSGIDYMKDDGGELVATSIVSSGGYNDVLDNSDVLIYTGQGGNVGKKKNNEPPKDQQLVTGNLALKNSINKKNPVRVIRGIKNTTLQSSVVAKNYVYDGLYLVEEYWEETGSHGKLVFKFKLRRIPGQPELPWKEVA", "assay": "ITC; N fixed to 0.5; 3-fold higher concentrations; ITC: 40 mM Tris-HCl pH 7.5, 50 mM NaCl, 2 mM b-mercaptoethanol, 25 C; FP: 20 mM Tris-HCl pH 7.5, 50 mM NaCl, 1 mM DTT, 20 C; EMSA: 25 mM Tris-HCl pH 7.5, 5% glycerol, 60 mM NaCl, 10 mM MgCl2, 0.4 mg/mL BSA, 2 mM DTT", "conditions": "protein: recombinant; tags: His6-SUMO, cleaved with Ulp1; chain copies: 2; self-complementary, 2 copies of strand"}, "SUVH5 SRA domain [2]": {"biological_target": "T1, SUVH5 SRA domain", "assay": "ITC; ITC: 40 mM Tris-HCl pH 7.5, 50 mM NaCl, 2 mM b-mercaptoethanol, 25 C; FP: 20 mM Tris-HCl pH 7.5, 50 mM NaCl, 1 mM DTT, 20 C; EMSA: 25 mM Tris-HCl pH 7.5, 5% glycerol, 60 mM NaCl, 10 mM MgCl2, 0.4 mg/mL BSA, 2 mM DTT", "conditions": "protein: recombinant; tags: His6-SUMO, cleaved with Ulp1; chain copies: 2"}, "SUVH5 SRA domain [3]": {"biological_target": "T1, SUVH5 SRA domain", "assay": "ITC; N fixed to 0.5; endothermic; 3-fold higher concentrations; ITC: 40 mM Tris-HCl pH 7.5, 50 mM NaCl, 2 mM b-mercaptoethanol, 25 C; FP: 20 mM Tris-HCl pH 7.5, 50 mM NaCl, 1 mM DTT, 20 C; EMSA: 25 mM Tris-HCl pH 7.5, 5% glycerol, 60 mM NaCl, 10 mM MgCl2, 0.4 mg/mL BSA, 2 mM DTT", "conditions": "protein: recombinant; tags: His6-SUMO, cleaved with Ulp1; chain copies: 2; self-complementary, 2 copies of strand"}, "SUVH5 SRA domain [4]": {"biological_target": "T1, SUVH5 SRA domain", "assay": "ITC; N = 0.52; ITC: 40 mM Tris-HCl pH 7.5, 50 mM NaCl, 2 mM b-mercaptoethanol, 25 C; FP: 20 mM Tris-HCl pH 7.5, 50 mM NaCl, 1 mM DTT, 20 C; EMSA: 25 mM Tris-HCl pH 7.5, 5% glycerol, 60 mM NaCl, 10 mM MgCl2, 0.4 mg/mL BSA, 2 mM DTT", "conditions": "protein: recombinant; tags: His6-SUMO, cleaved with Ulp1; chain copies: 2; self-complementary, 2 copies of strand"}, "SUVH5 SRA domain [5]": {"biological_target": "T1, SUVH5 SRA domain", "assay": "ITC; N = 0.48; ITC: 40 mM Tris-HCl pH 7.5, 50 mM NaCl, 2 mM b-mercaptoethanol, 25 C; FP: 20 mM Tris-HCl pH 7.5, 50 mM NaCl, 1 mM DTT, 20 C; EMSA: 25 mM Tris-HCl pH 7.5, 5% glycerol, 60 mM NaCl, 10 mM MgCl2, 0.4 mg/mL BSA, 2 mM DTT", "conditions": "protein: recombinant; tags: His6-SUMO, cleaved with Ulp1; chain copies: 2; self-complementary, 2 copies of strand"}, "UHRF1 SRA domain": {"biological_target": "T2, UHRF1 SRA domain (mammalian? (species ), UniProt Q96T88-2 427-630)", "T2 sequence": "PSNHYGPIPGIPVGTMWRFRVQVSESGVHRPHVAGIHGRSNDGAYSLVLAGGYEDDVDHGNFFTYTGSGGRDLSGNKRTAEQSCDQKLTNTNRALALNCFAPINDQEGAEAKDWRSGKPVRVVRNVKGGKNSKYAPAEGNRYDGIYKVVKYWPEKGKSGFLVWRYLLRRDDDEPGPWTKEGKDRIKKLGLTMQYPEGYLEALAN", "assay": "fluorescence polarization; 20 C; ITC: 40 mM Tris-HCl pH 7.5, 50 mM NaCl, 2 mM b-mercaptoethanol, 25 C; FP: 20 mM Tris-HCl pH 7.5, 50 mM NaCl, 1 mM DTT, 20 C; EMSA: 25 mM Tris-HCl pH 7.5, 5% glycerol, 60 mM NaCl, 10 mM MgCl2, 0.4 mg/mL BSA, 2 mM DTT", "conditions": "protein: recombinant; tags: His6-SUMO, cleaved with Ulp1; label: 5'-6FAM"}, "SUVH5 SRA domain [6]": {"biological_target": "T1, SUVH5 SRA domain", "assay": "X-ray crystal structure (2.6 A); 2:1 complex, dual 5hmC flip-out; ITC: 40 mM Tris-HCl pH 7.5, 50 mM NaCl, 2 mM b-mercaptoethanol, 25 C; FP: 20 mM Tris-HCl pH 7.5, 50 mM NaCl, 1 mM DTT, 20 C; EMSA: 25 mM Tris-HCl pH 7.5, 5% glycerol, 60 mM NaCl, 10 mM MgCl2, 0.4 mg/mL BSA, 2 mM DTT", "conditions": "protein: recombinant; tags: His6-SUMO, cleaved with Ulp1; chain copies: 2; self-complementary, 2 copies of strand; 3' T overhang"}}}
{"binder": "B1", "values": [{"measurement": "Kd", "setting": "SUVH5 SRA domain [1]", "result": "~150", "unit": "µM"}]}
{"binder": "B2", "values": [{"measurement": "Kd", "setting": "SUVH5 SRA domain [2]", "result": "7.6 ± 0.6", "unit": "µM"}]}
{"binder": "B3", "values": [{"measurement": "Kd", "setting": "SUVH5 SRA domain [3]", "result": "~125", "unit": "µM"}]}
{"binder": "B4", "values": [{"measurement": "Kd", "setting": "SUVH5 SRA domain [4]", "result": "1.5 ± 0.12", "unit": "µM"}]}
{"binder": "B5", "values": [{"measurement": "Kd", "setting": "SUVH5 SRA domain [5]", "result": "1.2 ± 0.09", "unit": "µM"}]}
{"binder": "B6", "values": [{"measurement": "Kd", "setting": "UHRF1 SRA domain", "result": 0.35, "unit": "µM"}]}
{"binder": "B7", "values": [{"measurement": "binding result", "setting": "SUVH5 SRA domain [6]", "result": "binds"}]}
